# In article PMC12494544 (The Journal of Biological Chemistry, 2025):
# Molecular target: the molecule itself
# Assay: crystal structure; PseM (28-186) at 27 mg/ml; 0.1 M Mes monohydrate pH 7.0, 2.0 M NaCl, 1% benzamidine-HCl, 291 K; SAD, 2.0 Å, space group P4(3)2(1)2; homodimer in the asymmetric unit
protein,measurement,value
"N-terminal-truncated PseM (residues from 28 to 186) (enzyme, PseM (PA0989), P. aeruginosa, residues 28 to 186, without the N-terminal signal peptide) STGDYWIVYGKGERYNNEVFVANATGILQQPKGIQSAQIIQLFEDRSMPTLTAYEVQFKCKERRVRFDNARAMRRIDNVITNVKTVDGWIDPEKYDYWLQRSFAFVCAPAIRDNNQMLPLGKMPIARMVQTVQAMFVELQGVQAKKQTMRDLDAMLGNE",stoichiometry N,2
